The results in this text go back to patent US20180142007A1 (AXON NEUROSCIENCE, published 2018).

For test [1], the target named is T1, misdisordered truncated tau 151-391/4R (human, UniProt P10636 468-708). Briefly: cell-based or functional assay.
The next test addresses T2, tau peptide 352-380 (human).
T2 construct: Synthetic peptide (EZBiolabs), numbered on tau 2N4R
T2 peptide: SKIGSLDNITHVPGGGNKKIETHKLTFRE
The test can be described thus: direct ELISA, tau peptide coated on plate.

For the next test, the target named is T3, tau peptide 256-285 (human).
T3 construct: Synthetic peptide (EZBiolabs), numbered on tau 2N4R
T3 peptide: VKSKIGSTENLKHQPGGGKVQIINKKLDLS
Briefly: direct ELISA, tau peptide coated on plate. (In general: ELISA stands for enzyme-linked immunosorbent assay.)

The next test deals with T4, tau peptide 282-311 (human).
T4 construct: Synthetic peptide (EZBiolabs), numbered on tau 2N4R; also called peptide derived from MTBRII
T4 peptide: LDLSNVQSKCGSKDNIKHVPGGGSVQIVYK
Briefly: direct ELISA, tau peptide coated on plate.

The next test has as its target T5, tau peptide 314-342 (human).
T5 construct: Synthetic peptide (EZBiolabs), numbered on tau 2N4R
T5 peptide: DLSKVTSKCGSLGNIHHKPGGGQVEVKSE
The test can be described thus: direct ELISA, tau peptide coated on plate.

For test [2], the target named is T1, misdisordered truncated tau 151-391/4R. The test can be described thus: binding ELISA of IgG4 versions, plate coated with Tau 151-391/4R.

T1 sequence (P10636 468-708): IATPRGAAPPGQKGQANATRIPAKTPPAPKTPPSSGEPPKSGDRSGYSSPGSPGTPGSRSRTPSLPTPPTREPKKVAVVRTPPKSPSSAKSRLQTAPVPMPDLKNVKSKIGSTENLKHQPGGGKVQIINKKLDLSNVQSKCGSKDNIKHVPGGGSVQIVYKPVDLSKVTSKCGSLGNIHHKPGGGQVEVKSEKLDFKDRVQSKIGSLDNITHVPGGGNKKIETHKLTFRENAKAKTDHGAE

B1: AX004-IgG1, humanized DC8E8 RHD/RKA, IgG1 isotype (antibody)
heavy: not shown
light: DIVMTQSPLSLPVTPGEPASISCKSSQSLLNSRTRKNYLAWYLQKPGQSPQLLIYWASTRESGVPDRFTGSGSGTDFTLKISRVEAEDVGVYYCKQSFYLRTFGQGTKVEIKRTVAAPSVFIFPPSDEQLKSGTASVVCLLNNFYPREAKVQWKVDNALQSGNSQESVTEQDSKDSTYSLSSTLTLSKADYEKHKVYACEVTHQGLSSPVTKSFNRGEC
notes: Expressed in Expi293, purified on Protein A and by size exclusion
On to B1, for which the “amount of fibrillized pathological tau forms (Thioflavin T fluorescence), antibody at 10 uM” value in test [1] was under 3%. Further, the binding result with tau peptide 352-380, with tau peptide 256-285, with tau peptide 282-311 and with tau peptide 314-342 was “binds” throughout.

B2: AX004-IgG4, humanized DC8E8 RHD/RKA, IgG4 isotype (antibody)
heavy: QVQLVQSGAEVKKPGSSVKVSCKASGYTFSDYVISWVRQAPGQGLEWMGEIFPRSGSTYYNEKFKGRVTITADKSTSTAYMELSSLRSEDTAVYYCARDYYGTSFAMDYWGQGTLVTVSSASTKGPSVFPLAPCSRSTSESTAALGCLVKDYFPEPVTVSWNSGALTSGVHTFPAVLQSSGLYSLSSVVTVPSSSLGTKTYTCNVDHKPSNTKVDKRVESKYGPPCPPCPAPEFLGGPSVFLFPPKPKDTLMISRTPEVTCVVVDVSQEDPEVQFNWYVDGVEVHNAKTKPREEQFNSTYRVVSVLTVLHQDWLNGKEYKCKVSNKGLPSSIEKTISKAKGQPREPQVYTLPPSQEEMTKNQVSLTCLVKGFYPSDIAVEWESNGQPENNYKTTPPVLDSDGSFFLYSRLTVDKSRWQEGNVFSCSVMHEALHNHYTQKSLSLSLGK
light: DIVMTQSPLSLPVTPGEPASISCKSSQSLLNSRTRKNYLAWYLQKPGQSPQLLIYWASTRESGVPDRFTGSGSGTDFTLKISRVEAEDVGVYYCKQSFYLRTFGQGTKVEIKRTVAAPSVFIFPPSDEQLKSGTASVVCLLNNFYPREAKVQWKVDNALQSGNSQESVTEQDSKDSTYSLSSTLTLSKADYEKHKVYACEVTHQGLSSPVTKSFNRGEC
notes: Expressed in Expi293; also called AXON004-IgG4
With B2, the “amount of fibrillized pathological tau forms (Thioflavin T fluorescence), antibody at 10 uM” value in test [1] was under 3%. For the same molecule, the binding result with tau peptide 352-380, in the test with tau peptide 256-285, with tau peptide 282-311 and with tau peptide 314-342 was “binds” in each case.

B3: AX005-IgG1, humanized DC8E8 RHE/RKA, IgG1 isotype (antibody)
heavy: not shown
light: DIVMTQSPLSLPVTPGEPASISCKSSQSLLNSRTRKNYLAWYLQKPGQSPQLLIYWASTRESGVPDRFTGSGSGTDFTLKISRVEAEDVGVYYCKQSFYLRTFGQGTKVEIKRTVAAPSVFIFPPSDEQLKSGTASVVCLLNNFYPREAKVQWKVDNALQSGNSQESVTEQDSKDSTYSLSSTLTLSKADYEKHKVYACEVTHQGLSSPVTKSFNRGEC
notes: as for B1
Consider B3, for which the binding result with tau peptide 352-380, in the test with tau peptide 282-311 and in the test with tau peptide 314-342 was “binds” in each case.

B4: AX002-IgG4, humanized DC8E8 RHB/RKA, IgG4 isotype (antibody)
heavy: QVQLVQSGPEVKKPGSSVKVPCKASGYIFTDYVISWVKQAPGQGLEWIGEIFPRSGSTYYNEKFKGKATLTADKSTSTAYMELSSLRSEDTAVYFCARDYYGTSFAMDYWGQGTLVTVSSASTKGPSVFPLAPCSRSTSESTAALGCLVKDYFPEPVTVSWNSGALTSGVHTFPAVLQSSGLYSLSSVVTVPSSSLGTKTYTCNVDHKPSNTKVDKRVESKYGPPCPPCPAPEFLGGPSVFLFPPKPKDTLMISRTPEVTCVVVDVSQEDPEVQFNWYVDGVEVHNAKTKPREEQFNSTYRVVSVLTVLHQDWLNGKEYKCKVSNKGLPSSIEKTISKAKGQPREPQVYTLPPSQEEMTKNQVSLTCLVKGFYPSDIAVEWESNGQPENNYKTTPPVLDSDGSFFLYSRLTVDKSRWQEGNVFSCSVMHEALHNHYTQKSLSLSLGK
light: DIVMTQSPLSLPVTPGEPASISCKSSQSLLNSRTRKNYLAWYLQKPGQSPQLLIYWASTRESGVPDRFTGSGSGTDFTLKISRVEAEDVGVYYCKQSFYLRTFGQGTKVEIKRTVAAPSVFIFPPSDEQLKSGTASVVCLLNNFYPREAKVQWKVDNALQSGNSQESVTEQDSKDSTYSLSSTLTLSKADYEKHKVYACEVTHQGLSSPVTKSFNRGEC
notes: also called AXON002-IgG4
For the molecule B4, the binding result in test [2] is “binds”.

B5: AX017-IgG4, humanized DC8E8 RHE/RKB, IgG4 isotype (antibody)
heavy: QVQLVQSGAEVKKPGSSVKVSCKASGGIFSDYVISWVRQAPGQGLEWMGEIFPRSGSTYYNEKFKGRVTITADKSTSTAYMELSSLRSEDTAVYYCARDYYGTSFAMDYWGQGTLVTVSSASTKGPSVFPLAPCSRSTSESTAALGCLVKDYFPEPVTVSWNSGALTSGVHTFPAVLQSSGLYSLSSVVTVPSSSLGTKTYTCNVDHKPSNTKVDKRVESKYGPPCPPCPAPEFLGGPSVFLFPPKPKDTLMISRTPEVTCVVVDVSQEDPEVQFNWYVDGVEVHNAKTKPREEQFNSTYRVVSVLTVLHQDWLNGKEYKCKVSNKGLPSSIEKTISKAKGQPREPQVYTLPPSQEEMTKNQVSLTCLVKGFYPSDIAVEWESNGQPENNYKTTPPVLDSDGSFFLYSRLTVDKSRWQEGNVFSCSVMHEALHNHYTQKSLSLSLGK
light: DIVMSQSPLSLPVTPGEPASISCKSSQSLLNSRTRKNYLAWYLQKPGQSPQLLIYWASTRESGVPDRFTGSGSGTDFTLKISRVEAEDVGVYYCKQSFYLRTFGQGTKVEIKRTVAAPSVFIFPPSDEQLKSGTASVVCLLNNFYPREAKVQWKVDNALQSGNSQESVTEQDSKDSTYSLSSTLTLSKADYEKHKVYACEVTHQGLSSPVTKSFNRGEC
notes: Expressed in Expi293; also called AXON017-IgG4
Turning to B5, the binding result with tau peptide 352-380, in the test with tau peptide 282-311 and with tau peptide 314-342 was “binds” throughout.

B6: AX017-IgG1, humanized DC8E8 RHE/RKB, IgG1 isotype (antibody)
heavy: not shown
light: DIVMSQSPLSLPVTPGEPASISCKSSQSLLNSRTRKNYLAWYLQKPGQSPQLLIYWASTRESGVPDRFTGSGSGTDFTLKISRVEAEDVGVYYCKQSFYLRTFGQGTKVEIKRTVAAPSVFIFPPSDEQLKSGTASVVCLLNNFYPREAKVQWKVDNALQSGNSQESVTEQDSKDSTYSLSSTLTLSKADYEKHKVYACEVTHQGLSSPVTKSFNRGEC
notes: as for B1
For B6, the binding result in the test with tau peptide 352-380, with tau peptide 282-311 and with tau peptide 314-342 was “binds” throughout.

B7: AX005-IgG4, humanized DC8E8 RHE/RKA, IgG4 isotype (antibody)
heavy: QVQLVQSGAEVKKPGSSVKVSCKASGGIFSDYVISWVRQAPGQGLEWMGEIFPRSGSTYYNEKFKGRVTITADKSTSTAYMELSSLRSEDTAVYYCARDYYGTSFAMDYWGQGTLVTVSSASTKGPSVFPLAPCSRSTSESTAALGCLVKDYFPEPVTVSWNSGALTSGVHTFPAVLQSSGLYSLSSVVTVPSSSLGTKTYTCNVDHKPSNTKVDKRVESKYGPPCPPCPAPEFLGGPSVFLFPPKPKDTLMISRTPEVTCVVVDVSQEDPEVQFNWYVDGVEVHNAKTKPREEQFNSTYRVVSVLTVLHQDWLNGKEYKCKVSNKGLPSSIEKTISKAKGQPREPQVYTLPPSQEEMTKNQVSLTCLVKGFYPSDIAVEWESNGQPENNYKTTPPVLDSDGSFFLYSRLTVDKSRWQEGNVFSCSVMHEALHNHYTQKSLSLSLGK
light: DIVMTQSPLSLPVTPGEPASISCKSSQSLLNSRTRKNYLAWYLQKPGQSPQLLIYWASTRESGVPDRFTGSGSGTDFTLKISRVEAEDVGVYYCKQSFYLRTFGQGTKVEIKRTVAAPSVFIFPPSDEQLKSGTASVVCLLNNFYPREAKVQWKVDNALQSGNSQESVTEQDSKDSTYSLSSTLTLSKADYEKHKVYACEVTHQGLSSPVTKSFNRGEC
notes: Expressed in Expi293; also called AXON005-IgG4
Consider B7, for which the binding result in the test with tau peptide 352-380, with tau peptide 282-311 and with tau peptide 314-342 was “binds” in each case.

B8: AX016-IgG1, humanized DC8E8 RHD/RKB, IgG1 isotype (antibody)
heavy: not shown
light: DIVMSQSPLSLPVTPGEPASISCKSSQSLLNSRTRKNYLAWYLQKPGQSPQLLIYWASTRESGVPDRFTGSGSGTDFTLKISRVEAEDVGVYYCKQSFYLRTFGQGTKVEIKRTVAAPSVFIFPPSDEQLKSGTASVVCLLNNFYPREAKVQWKVDNALQSGNSQESVTEQDSKDSTYSLSSTLTLSKADYEKHKVYACEVTHQGLSSPVTKSFNRGEC
notes: as for B1
For the molecule B8, the “amount of fibrillized pathological tau forms (Thioflavin T fluorescence), antibody at 10 uM” value in test [1] was under 3%. The binding result in the test with tau peptide 352-380, with tau peptide 256-285, with tau peptide 282-311 and in the test with tau peptide 314-342 was “binds” throughout.

B9: AX016-IgG4, humanized DC8E8 RHD/RKB, IgG4 isotype (antibody)
heavy: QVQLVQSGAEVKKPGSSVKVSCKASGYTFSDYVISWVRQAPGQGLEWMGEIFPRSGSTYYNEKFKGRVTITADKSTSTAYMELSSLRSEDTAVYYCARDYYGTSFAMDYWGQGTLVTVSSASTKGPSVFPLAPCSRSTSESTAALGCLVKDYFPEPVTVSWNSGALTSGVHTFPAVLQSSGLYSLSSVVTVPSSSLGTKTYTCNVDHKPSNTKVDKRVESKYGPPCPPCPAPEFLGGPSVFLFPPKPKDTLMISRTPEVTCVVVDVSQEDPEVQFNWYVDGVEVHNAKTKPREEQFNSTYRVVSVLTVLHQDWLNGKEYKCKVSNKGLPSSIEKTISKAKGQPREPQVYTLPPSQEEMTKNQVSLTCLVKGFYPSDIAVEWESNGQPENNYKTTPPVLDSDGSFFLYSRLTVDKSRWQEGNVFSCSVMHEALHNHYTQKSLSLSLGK
light: DIVMSQSPLSLPVTPGEPASISCKSSQSLLNSRTRKNYLAWYLQKPGQSPQLLIYWASTRESGVPDRFTGSGSGTDFTLKISRVEAEDVGVYYCKQSFYLRTFGQGTKVEIKRTVAAPSVFIFPPSDEQLKSGTASVVCLLNNFYPREAKVQWKVDNALQSGNSQESVTEQDSKDSTYSLSSTLTLSKADYEKHKVYACEVTHQGLSSPVTKSFNRGEC
notes: Expressed in Expi293; also called AXON016-IgG4
B9: the “amount of fibrillized pathological tau forms (Thioflavin T fluorescence), antibody at 10 uM” value in test [1] is under 3%. Moreover, the binding result in the test with tau peptide 352-380, with tau peptide 256-285, in the test with tau peptide 282-311 and in the test with tau peptide 314-342 was “binds” in each case.

B10: AX014-IgG4, humanized DC8E8 RHB/RKB, IgG4 isotype (antibody)
heavy: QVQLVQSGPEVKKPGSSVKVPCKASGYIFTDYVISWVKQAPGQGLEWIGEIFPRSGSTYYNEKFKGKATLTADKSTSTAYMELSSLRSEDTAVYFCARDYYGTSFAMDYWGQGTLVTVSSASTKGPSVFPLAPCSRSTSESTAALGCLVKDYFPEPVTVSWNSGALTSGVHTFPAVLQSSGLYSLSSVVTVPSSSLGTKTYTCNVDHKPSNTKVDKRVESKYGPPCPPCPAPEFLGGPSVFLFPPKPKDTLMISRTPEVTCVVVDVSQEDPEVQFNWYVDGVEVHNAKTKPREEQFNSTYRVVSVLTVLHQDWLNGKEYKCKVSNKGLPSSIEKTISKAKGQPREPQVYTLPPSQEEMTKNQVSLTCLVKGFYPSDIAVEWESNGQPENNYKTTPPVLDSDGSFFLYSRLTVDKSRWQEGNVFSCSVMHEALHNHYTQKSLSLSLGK
light: DIVMSQSPLSLPVTPGEPASISCKSSQSLLNSRTRKNYLAWYLQKPGQSPQLLIYWASTRESGVPDRFTGSGSGTDFTLKISRVEAEDVGVYYCKQSFYLRTFGQGTKVEIKRTVAAPSVFIFPPSDEQLKSGTASVVCLLNNFYPREAKVQWKVDNALQSGNSQESVTEQDSKDSTYSLSSTLTLSKADYEKHKVYACEVTHQGLSSPVTKSFNRGEC
notes: also called AXON014-IgG4
Turning to B10, the binding result in test [2] is reported as “binds”.

B11: AX028-IgG4, RHD heavy chain with chimeric DC8E8 kappa light chain, IgG4 isotype (antibody, V domains shown)
VH: QVQLVQSGAEVKKPGSSVKVSCKASGYTFSDYVISWVRQAPGQGLEWMGEIFPRSGSTYYNEKFKGRVTITADKSTSTAYMELSSLRSEDTAVYYCARDYYGTSFAMDYWGQGTLVTVSS
VL: DIVMSQSPSSLAVSAGEKVTMSCKSSQSLLNSRTRKNYLAWYQQKPGQSPKLLIYWASTRESGVPDRFTGSGSGTDFTLTISSVQAEDLAVYYCKQSFYLRTFGGGTKLDIKR
notes: also called AXON028-IgG4; RHD/VK
Regarding B11, in test [2], the binding result is reported as “binds”.

B12: AX029-IgG4, RHE heavy chain with chimeric DC8E8 kappa light chain, IgG4 isotype (antibody, V domains shown)
VH: QVQLVQSGAEVKKPGSSVKVSCKASGGIFSDYVISWVRQAPGQGLEWMGEIFPRSGSTYYNEKFKGRVTITADKSTSTAYMELSSLRSEDTAVYYCARDYYGTSFAMDYWGQGTLVTVSS
VL: DIVMSQSPSSLAVSAGEKVTMSCKSSQSLLNSRTRKNYLAWYQQKPGQSPKLLIYWASTRESGVPDRFTGSGSGTDFTLTISSVQAEDLAVYYCKQSFYLRTFGGGTKLDIKR
notes: also called AXON029-IgG4; RHE/VK
For the molecule B12, in test [2], the binding result is listed as “binds”.

B13: AX026-IgG4, RHB heavy chain with chimeric DC8E8 kappa light chain, IgG4 isotype (antibody, V domains shown)
VH: QVQLVQSGPEVKKPGSSVKVPCKASGYIFTDYVISWVKQAPGQGLEWIGEIFPRSGSTYYNEKFKGKATLTADKSTSTAYMELSSLRSEDTAVYFCARDYYGTSFAMDYWGQGTLVTVSS
VL: DIVMSQSPSSLAVSAGEKVTMSCKSSQSLLNSRTRKNYLAWYQQKPGQSPKLLIYWASTRESGVPDRFTGSGSGTDFTLTISSVQAEDLAVYYCKQSFYLRTFGGGTKLDIKR
notes: also called AXON026-IgG4; RHB/VK
With B13, the binding result in test [2] was “binds”.
